Measurements taken from article PMC2922928 (Nature structural & molecular biology, 2010).

Columns and labels:
Assay in all cases: ELISA
[1] = biological target: His-tagged p53 purified from bacteria (human, UniProt P04637 1-393)
[2] = biological target: His-tagged p53(ΔC30) purified from bacteria (human, UniProt P04637 1-363)
[3] = biological target: Flag-p53 purified from insect cells (unacetylated) (human, UniProt P04637 1-393)

Measured: binding result

B1: untagged Mdm2(10–139) (domain or fragment)
chain: GSMTDGAVTTSQIPASEQETLVRPKPLLLKLLKSVGAQKDTYTMKEVLFYLGQYIMTKRLYDEKQQHIVYCSNDLLGDLFGVPSFSVKEHRKIYTMIYRNLVVVNQQESSDSGTSVSENRCHLEGGSDQKDLV
binds: all assays above
